Source: article PMC3245936 (Nucleic Acids Research, 2011)

T1: SpPot1 (Schizosaccharomyces pombe, UniProt O13988 1-555)
T1 sequence: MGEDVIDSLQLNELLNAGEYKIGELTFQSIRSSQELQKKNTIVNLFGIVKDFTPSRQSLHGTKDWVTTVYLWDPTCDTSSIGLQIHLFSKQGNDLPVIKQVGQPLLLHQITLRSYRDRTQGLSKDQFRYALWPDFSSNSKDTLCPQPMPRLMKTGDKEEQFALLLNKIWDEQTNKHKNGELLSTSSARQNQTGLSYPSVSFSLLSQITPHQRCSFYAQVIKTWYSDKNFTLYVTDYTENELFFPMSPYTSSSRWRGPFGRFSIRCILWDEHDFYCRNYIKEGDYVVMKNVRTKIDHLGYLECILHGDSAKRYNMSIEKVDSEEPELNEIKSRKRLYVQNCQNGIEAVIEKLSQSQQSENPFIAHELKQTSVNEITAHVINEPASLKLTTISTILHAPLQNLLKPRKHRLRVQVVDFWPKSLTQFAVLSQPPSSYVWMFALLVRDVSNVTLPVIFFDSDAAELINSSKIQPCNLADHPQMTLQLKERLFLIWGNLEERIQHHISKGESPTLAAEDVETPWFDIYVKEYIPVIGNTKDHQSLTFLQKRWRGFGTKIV

T2: SpPot1;Tpz1-1-234 (Schizosaccharomyces …, UniProt O13988;O14246 1-555;1-234, |)
T2 sequence 1: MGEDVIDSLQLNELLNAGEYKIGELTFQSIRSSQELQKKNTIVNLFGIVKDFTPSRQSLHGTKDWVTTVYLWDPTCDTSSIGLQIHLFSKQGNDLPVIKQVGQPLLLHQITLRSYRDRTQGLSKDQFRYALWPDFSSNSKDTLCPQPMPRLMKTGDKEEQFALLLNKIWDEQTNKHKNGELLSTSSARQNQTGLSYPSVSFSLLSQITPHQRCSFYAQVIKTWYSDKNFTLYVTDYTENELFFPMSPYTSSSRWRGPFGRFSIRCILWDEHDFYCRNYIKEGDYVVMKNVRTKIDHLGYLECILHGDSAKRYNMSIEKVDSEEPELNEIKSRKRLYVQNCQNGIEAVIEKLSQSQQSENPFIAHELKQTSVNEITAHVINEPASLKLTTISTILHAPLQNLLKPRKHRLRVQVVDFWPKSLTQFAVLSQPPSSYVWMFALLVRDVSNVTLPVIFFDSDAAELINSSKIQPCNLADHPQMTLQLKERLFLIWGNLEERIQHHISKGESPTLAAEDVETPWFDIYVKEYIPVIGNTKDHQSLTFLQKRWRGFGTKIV
T2 sequence 2: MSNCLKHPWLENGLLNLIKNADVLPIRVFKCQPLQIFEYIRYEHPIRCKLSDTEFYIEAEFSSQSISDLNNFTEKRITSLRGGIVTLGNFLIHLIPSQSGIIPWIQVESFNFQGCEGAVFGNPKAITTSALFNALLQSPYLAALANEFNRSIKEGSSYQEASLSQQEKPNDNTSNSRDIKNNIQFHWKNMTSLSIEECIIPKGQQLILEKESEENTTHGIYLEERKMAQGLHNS

T3: full-length SpPot1 (Schizosaccharomyces pombe Pot1) (S. pombe, UniProt O13988 1-555)
T3 sequence (looked up): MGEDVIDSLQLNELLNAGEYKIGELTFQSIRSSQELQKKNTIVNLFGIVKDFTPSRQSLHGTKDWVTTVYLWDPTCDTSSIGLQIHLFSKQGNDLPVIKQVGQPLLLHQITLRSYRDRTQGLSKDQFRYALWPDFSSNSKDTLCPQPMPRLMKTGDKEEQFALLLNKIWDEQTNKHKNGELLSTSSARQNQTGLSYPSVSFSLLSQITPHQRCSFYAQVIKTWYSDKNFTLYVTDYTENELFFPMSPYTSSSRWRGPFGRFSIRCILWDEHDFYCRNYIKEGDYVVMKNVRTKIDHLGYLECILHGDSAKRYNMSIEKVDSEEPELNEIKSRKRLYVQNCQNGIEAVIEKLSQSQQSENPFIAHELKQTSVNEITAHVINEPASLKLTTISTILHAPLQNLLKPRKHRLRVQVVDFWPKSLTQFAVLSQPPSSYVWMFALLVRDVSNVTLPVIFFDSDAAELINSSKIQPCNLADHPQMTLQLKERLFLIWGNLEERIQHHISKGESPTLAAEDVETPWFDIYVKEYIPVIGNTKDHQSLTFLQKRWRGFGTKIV


Tests used:
SpPot1 [1] = biological target: T1, SpPot1; assay: size-exclusion chromatography
SpPot1 [2] = biological target: T1, SpPot1; assay: filter binding
SpPot1;Tpz1-1-234 = biological target: T2, SpPot1;Tpz1-1-234; assay: filter binding
[3] = biological target: T3, full-length SpPot1 (Schizosaccharomyces …); assay: native gel or EMSA

| binding result [3] | Binder | binding result (SpPot1 [1]) | Kd (SpPot1 [2]) [nM] | Kd (SpPot1;Tpz1-1-234) [nM] |
| --- | --- | --- | --- | --- |
|  | GGTTAC (ssDNA) | binds |  |  |
|  | GGUUACGGUUAC (mixed, ribonucleotides (rU) at 3, 4, 9 and 10) [r3r4r9r10] |  | ~238 |  |
|  | GGTTACGGTTAC (ssDNA) [d12] |  | 5 ± 1.3 | 0.22 ± 0.03 |
|  | GGUUACGGUUAC (ssRNA) [r12] |  | ~324 | ~1000 |
|  | GGTTACAGGTTAC (mixed, ribonucleotide (rA) at 7) [d12rA] |  | 3.4 ± 0.3 |  |
|  | GGTTACGGTTAC (mixed, ribonucleotides at 5 and 11) [r5r11] |  | 3.34 ± 0.4 | 0.31 ± 0.05 |
|  | GGTTACGGTTAC (mixed, ribonucleotides at 6 and 12) [r6r12] |  | 3.2 ± 0.6 | 0.3 ± 0.05 |
|  | GGTTACGGTTAC (mixed, ribonucleotides at 1 and 7) [r1r7] |  | 5.1 ± 0.01 | 0.31 ± 0.02 |
|  | GGTTACAGGGGTTAC (mixed, ribonucleotides (rArGrG) at 7-9) [d12rArGrG] |  | 4 ± 0.5 |  |
|  | GGTTACAGGGGTTAC (ssDNA) [d12dAdGdG] |  | 4.9 ± 0.7 |  |
|  | GGTTACGGTTAC (mixed, ribonucleotides at 2 and 8) [r2r8] |  | 3.2 ± 0.5 | 0.19 ± 0.03 |
|  | GGTTACAGGTTAC (ssDNA) [d12dA] |  | 4.3 ± 0.6 |  |
| binds | Tpz1-1–234 (domain or fragment, S. pombe, UniProt O14246 1-234, looked up) MSNCLKHPWLENGLLNLIKNADVLPIRVFKCQPLQIFEYIRYEHPIRCKLSDTEFYIEAEFSSQSISDLNNFTEKRITSLRGGIVTLGNFLIHLIPSQSGIIPWIQVESFNFQGCEGAVFGNPKAITTSALFNALLQSPYLAALANEFNRSIKEGSSYQEASLSQQEKPNDNTSNSRDIKNNIQFHWKNMTSLSIEECIIPKGQQLILEKESEENTTHGIYLEERKMAQGLHNS |  |  |  |
